{"source": "paper PMC11435836", "about": "(Vaccines, 2024)", "target": "the molecule itself", "assay": "SEC; Superose 6 Increase 10/300 GL; single ENC particles eluted at 11-12 mL, highly aggregated particles at 8-9 mL", "data": [{"protein": "encapsulin (ENC) from Thermotoga maritima (natural protein, UniProt Q9WZP2 1-264, looked up, also called ENC NPs; ENC PNPs; copies: 60) MEFLKRSFAPLTEKQWQEIDNRAREIFKTQLYGRKFVDVEGPYGWEYAAHPLGEVEVLSDENEVVKWGLRKSLPLIELRATFTLDLWELDNLERGKPNVDLSSLEETVRKVAEFEDEVIFRGCEKSGVKGLLSFEERKIECGSTPKDLLEAIVRALSIFSKDGIEGPYTLVINTDRWINFLKEEAGHYPLEKRVEECLRGGKIITTPRIEDALVVSERGGDFKLILGQDLSIGYEDREKDAVRLFITETFTFQVVNPEALILLK", "values": [{"measurement": "binding result", "value": "binds"}]}]}
